Reference: patent US9222143

Target: CD11b/CD18 receptor on J774A.1 murine monocytes/macrophages (murine) (UniProt P05555)
Experiment: cell-based or functional assay

CyaA/233OVA/K860R/AC- (from UniProt J7QLC0 1-1706)
Lysis of J774A.1 cells (% of AC-): 72 % of AC-
